US20250043287, “SYNTHETIC MEMORY WITH INTERCEPTING RECOMBINASE FUNCTION” (Georgia Tech Research Corporation, published 2025)

Experiments:
[1] = target: T1, E+HQN (UniProt O87590 SEQ:1-337, Y17H,R22N); assay: cell_activity; day 1 dynamic range of interception, cellobiose induced; 114.83 day 3; details: chain copies: 2
T1 sequence: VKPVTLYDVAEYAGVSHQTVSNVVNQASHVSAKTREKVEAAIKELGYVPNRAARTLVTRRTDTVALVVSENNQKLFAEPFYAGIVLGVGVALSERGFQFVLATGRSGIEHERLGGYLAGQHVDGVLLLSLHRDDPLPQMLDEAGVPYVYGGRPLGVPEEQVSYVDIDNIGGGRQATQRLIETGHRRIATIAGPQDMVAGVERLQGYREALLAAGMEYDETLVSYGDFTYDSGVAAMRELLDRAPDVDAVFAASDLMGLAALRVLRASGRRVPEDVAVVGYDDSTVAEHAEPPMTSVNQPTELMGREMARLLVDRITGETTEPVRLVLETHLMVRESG

[2] = target: I+HQN (UniProt P03023 SEQ:1-360, Y17H,R22N); assay: cell_activity; day 1 dynamic range, IPTG; 57.65 day 3; details: chain copies: 4
[3] = target: T2, E+KSL (UniProt O87590 SEQ:1-337, Y17K,Q18S,R22L); assay: cell_activity; day 1 dynamic range; 71.51 day 3; details: chain copies: 2
T2 sequence: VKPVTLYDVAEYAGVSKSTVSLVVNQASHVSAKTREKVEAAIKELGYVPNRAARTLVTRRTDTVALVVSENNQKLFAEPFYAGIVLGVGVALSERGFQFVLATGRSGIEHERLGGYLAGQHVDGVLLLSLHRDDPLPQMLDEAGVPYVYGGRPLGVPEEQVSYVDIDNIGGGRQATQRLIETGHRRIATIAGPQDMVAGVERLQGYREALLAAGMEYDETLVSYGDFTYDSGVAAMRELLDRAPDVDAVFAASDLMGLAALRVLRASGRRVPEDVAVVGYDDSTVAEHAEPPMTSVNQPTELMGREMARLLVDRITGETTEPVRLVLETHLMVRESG

[4] = target: I+KSL (UniProt P03023 SEQ:1-360, Y17K,Q18S,R22L); assay: cell_activity; day 1 dynamic range; 7.42 day 3; details: chain copies: 4
[5] = target: T3, I+YQR (LacI) (UniProt P03023 SEQ:1-360); assay: cell_activity; day 1 dynamic range; 29.77 day 3; details: chain copies: 4
T3 chain: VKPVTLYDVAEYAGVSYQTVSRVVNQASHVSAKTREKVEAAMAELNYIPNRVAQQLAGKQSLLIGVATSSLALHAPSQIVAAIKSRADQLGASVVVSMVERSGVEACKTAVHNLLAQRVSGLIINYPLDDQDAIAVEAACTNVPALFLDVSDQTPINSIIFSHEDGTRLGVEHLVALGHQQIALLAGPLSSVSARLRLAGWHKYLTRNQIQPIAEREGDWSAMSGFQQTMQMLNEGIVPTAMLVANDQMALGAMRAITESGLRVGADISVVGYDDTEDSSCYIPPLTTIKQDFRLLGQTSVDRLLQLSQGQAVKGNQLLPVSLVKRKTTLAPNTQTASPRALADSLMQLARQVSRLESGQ

[6] = target: T4, E+YQR (CelR core, LacI-type DBD) (UniProt O87590 SEQ:1-337); assay: cell_activity; day 1 dynamic range; 141.52 day 3; details: chain copies: 2
T4 chain: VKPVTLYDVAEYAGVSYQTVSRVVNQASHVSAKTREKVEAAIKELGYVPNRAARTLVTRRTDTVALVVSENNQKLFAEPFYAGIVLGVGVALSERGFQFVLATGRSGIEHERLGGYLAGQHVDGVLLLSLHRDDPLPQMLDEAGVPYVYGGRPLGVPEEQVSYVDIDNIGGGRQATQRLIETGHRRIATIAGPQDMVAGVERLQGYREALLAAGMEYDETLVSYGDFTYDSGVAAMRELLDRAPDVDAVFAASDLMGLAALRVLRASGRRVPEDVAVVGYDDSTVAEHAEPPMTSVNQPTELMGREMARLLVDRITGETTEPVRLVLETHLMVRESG

B1: A118 attP Ottg P+1 (dsDNA)
DNA 1: TTAGTTCCTCGTTTTCTCTCGTTAATTTTGAGCGCTCAAAAAAACTAAA
DNA 2: TTTAGTTTTTTTGAGCGCTCAAAATTAACGAGAGAAAACGAGGAACTAA
B1 gave a binding signal [1] of 20.6 fold and a binding signal [2] of 15.4 fold.

B2: A118 attP Oagg P+1 (dsDNA)
DNA 1: TTAGTTCCTCGTTTTCTCTCGTTAATTAGGAGCGCTCCTAAAAACTAAA
DNA 2: TTTAGTTTTTAGGAGCGCTCCTAATTAACGAGAGAAAACGAGGAACTAA
With B2 the binding signal [3] was 14.7 fold and the binding signal [4] was 5.44 fold.

B3: A118 attP Ogtg (Osym) P+1 (dsDNA)
DNA 1: TTAGTTCCTCGTTTTCTCTCGTTAATTGTGAGCGCTCACAAAAACTAAA
DNA 2: TTTAGTTTTTGTGAGCGCTCACAATTAACGAGAGAAAACGAGGAACTAA
With B3 the dynamic range [5] was 9.26 fold and the binding signal [6] was 20.9 fold.
